This data set concerns the molecule itself. The data set is described as follows: crystal structure; RdDddP crystallised in 4-4.5 M sodium chloride, 0.1 M Bis-Tris pH 6.5; space group P6(3)22, one molecule per asymmetric unit, dimer formed with a chain related by crystallographic symmetry; 2.15 Å native dataset.

B1: putative DddP DMSP lyase from Roseobacter denitrificans Och 114 (enzyme, UniProt Q166H0 1-447, looked up)
chain: MNRHFNATRKIDPSRGATLGDGSPNDMNRVEIGPTQLAFAEWHTARLDLPDLAAMRRFRHRRLTDHVVARGYAGLLMFDPLNIRYATDSTNMQLWNTHNPFRATLLCADGYMVMWDYKNSPFLSEFNPLVREQRAGADLFYFDRGDKVDVAADVFANEVRILLRDHAPGLRRLAVDKVMLHGLRALQAQGFEIMDGEEVTEKARSVKGPDEIRAMRCASHACEVAVRKMEDFARSKVGDGVTCENDIWAILHSENVRRGGEWIETRLLASGPRSNPWFQECGPRVCQRNEIISFDTDLVGAYGICTDISRSWWIGDQKPRADMIYAMQHGVEHIRTNMEMLKPGVMIPELSANTHVLDAKFQKQKYGCLMHGVGLCDEWPLVAYPDHAVAGAYDYPLEPGMTLCVEALISEEGGDFSIKLEDQVLITEDGYENLTKYPFDPALMGVE
notes: putative DMSP lyase DddP (RdDddP), Roseobacter denitrificans Och 114, YP_682809; 453 residues, 51 kDa; the gene was amplified with printed primers that run from the ATG start codon to the stop codon; residues 10-444 are described in the structure; Homodimer formed by crystallographic symmetry; A few vector residues probably remain at the N-terminus after thrombin cleavage (NheI cloning in pET28); …
B1: the “stoichiometry N” value was 2.

For the origin of these results see paper PMC4108388, “The Structure of RdDddP from Roseobacter denitrificans Reveals That DMSP Lyases in the DddP-Family Are Metalloenzymes” (PLoS ONE, 2014).
